Assay results from patent US20210324080A1 (JIANGSU HUAIYU PHARMACEUTICAL, published 2021).

Legend:
[1] = target: T1, CTLA-4 on human T lymphocytes (PBMC, CD3+ T cells) (human, UniProt P16410 36-223); test: cell-based or functional assay
T1 sequence (looked up): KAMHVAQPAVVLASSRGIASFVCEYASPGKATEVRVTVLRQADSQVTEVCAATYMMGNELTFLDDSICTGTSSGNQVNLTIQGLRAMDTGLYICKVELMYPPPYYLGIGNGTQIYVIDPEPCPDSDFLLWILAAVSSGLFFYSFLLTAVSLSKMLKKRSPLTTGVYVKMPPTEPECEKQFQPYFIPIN

[2] = target: T2, human CTLA-4 (Y201V), full length, on transfected cells (human, UniProt P16410 36-223); test: FACS, CHOK1-hCTLA-4 cells
T2 construct: whole, on cells; also called hCTLA-4; HEK293-hCTLA-4 (Y201V)
T2 sequence (looked up): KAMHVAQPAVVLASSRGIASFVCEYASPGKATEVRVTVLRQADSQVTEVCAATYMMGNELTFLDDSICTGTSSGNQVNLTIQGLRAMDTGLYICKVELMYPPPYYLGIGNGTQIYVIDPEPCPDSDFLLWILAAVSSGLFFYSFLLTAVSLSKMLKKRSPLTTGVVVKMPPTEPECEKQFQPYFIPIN

[3] = target: T3, monkey CTLA-4, full length, on transfected HEK293 cells (monkey); test: FACS, 293F-cCTLA-4 cells
T3 construct: whole, on cells; also called cCTLA-4; HEK293-cCTLA-4
Text: The pIRES plasmid with the monkey-derived CTLA-4 full-length gene was transfected into the HEK293 cell line to construct a HEK293 stable cell line containing monkey CTLA-4 (herein referred to as HEK293-cCTLA-4 stable cell line), wherein the database accession number of the monkey CTLA-4 nucleotide sequence is XM_005574014.1. The HEK293-hCTLA-4 stable cell line and HEK293-cCTLA-4 stable cell line were expanded in a T-75 cell culture flask to a 90% confluence. The medium was aspirated, and the cells were washed with HBSS buffer (Hanks Balanced Salt Solution, purchased from Invitrogen) twice, then treated with an enzyme-free cell dissociation fluid (Versene solution, purchased from Life technology) and the cells were collected. The cells were washed with HBSS buffer twice. After counted, the cells were diluted with HBSS buffer to 2×10⁶ cells per ml, added with 1% goat serum blocking solution, wherein the percentage was the mass percantage. Cells were incubated on ice for 30 minutes, then washed twice with HBSS buffer by centrifugation. The collected cells were suspended in the FACS buffer (HBSS containing 1% BSA, wherein the percentage was the mass percantage) to 2×10⁶ cells/ml, added as 100 microliters per well to a 96-well FACS reaction plate, added with 100 microliters per well of the purified CTLA-4 antibody sample to be tested, incubated on ice for 2 hours. The plate was washed twice with the FACS buffer by centrifugation, added with 100 microliters of fluorescent (Alexa 488)-labeled secondary antibodies (purchased from Invitrogen) per well, and incubated on ice for 1 hour. The plate was washed 3 times with FACS buffer by centrifugation, added with 100 μl fixative solution [4% (v/v) Paraformaldehyde] per well to suspend the cells. 10 minutes later, it was washed 2 times with FACS buffer by centrifugation. The cells were suspended with 100 microliters of FACS buffer, FACS (FACS Calibur, purchased from BD) was used for detection and the results were analyzed.

[4] = target: T4, CTLA-4-hFc (immunogen A; hFc-labeled CTLA-4 extracellular domain protein) (human, UniProt P16410 36-161); test: competition ELISA: CTLA-4-hFc coated, antibody titrated, blocked ligand biotin-labeled B7.2-hFc, HRP-avidin, A450, inhibition (%)
T4 construct: range 36-161; Made in HEK293 cells, purified on protein A; also called CLTA-4-hFc; CTLA-4 protein; not shown: human IgG Fc fragment (hFc) of the pCpC vector
T4 sequence (looked up): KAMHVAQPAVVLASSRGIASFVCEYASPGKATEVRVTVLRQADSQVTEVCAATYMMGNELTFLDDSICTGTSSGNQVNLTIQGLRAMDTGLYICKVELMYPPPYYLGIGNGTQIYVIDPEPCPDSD
Experimental: (§1) CTLA-4 extracellular domain protein (CTLA-4-hFc) was diluted with PBS to a final concentration of 1.0 μg/mL, and then added to a 96-well ELISA plate as 100 μl per well. The plate was covered with a plastic film and incubated overnight at 4° C. The plate was washed twice with plate washing solution [PBS containing 0.01% (v/v) Tween 20] on the next day, and added with blocking solution [PBS containing 0.01% (v/v) Tween 20 and 1% (w/w) BSA] and blocked at room temperature for 2 hours. […] After 2 hours, the plate was washed 3 times with a plate washing solution [PBS containing 0.01% (v/v) Tween 20]. HRP (horseradish peroxidase) labeled avidin diluent (purchased from Sigma) was added 100 microliters per well, and after the plate was incubated for 2 hours at 37° C., it was washed with plate washing solution [PBS containing 0.01% (v/v) Tween 20] for 3 times. […] TMB substrate was added to each well. After incubated at room temperature for 30 minutes, the plate was added with […] stop solution (1.0N HCl) to each well. An ELISA plate reader (SpectraMax 384plus, Molecular Device) was used to read the A450 nm value.

[5] = target: T4, CTLA-4-hFc (immunogen A; hFc-labeled …); test: ELISA, coated CTLA-4-hFc, competitor biotin-B7.2-hFc
Experimental: as §1

[6] = target: T4, CTLA-4-hFc (immunogen A; hFc-labeled …); test: ELISA, coated CTLA-4-hFc, competitor biotin-B7.1-hFc
Experimental: as §1

[7] = target: T4, CTLA-4-hFc (immunogen A; hFc-labeled …); test: competition ELISA: CTLA-4-hFc coated, antibody titrated, blocked ligand biotin-labeled B7.1-hFc, HRP-avidin, A450, inhibition (%)
Experimental: as §1

B1: 97B8E1 (chimeric antibody purified from hybridoma supernatant) (antibody, V domains shown)
VH: QVQLVESGGGVVQPGRSLRLSCAASGFTFSSYVMHWVRQAPGKGLEWVAVIWSDGRNKYYTDSVKGRFTISRDNSKNTLYLQMSSLRAEDTAVYYCARSGIALAGNAFDIWGQGTMVTVSS
VL: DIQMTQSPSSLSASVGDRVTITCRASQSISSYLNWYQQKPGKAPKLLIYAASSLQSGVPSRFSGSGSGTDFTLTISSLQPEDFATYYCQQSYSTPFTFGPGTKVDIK
notes: also called mAb50; mAb050
For B1, the “IL-2 (pg/mL) at 0.016 ug/mL, SEB PBMC test” value [1] was 446 pg/mL, the “IL-2 (pg/mL) at 0.08 ug/mL, SEB PBMC test” value [1] was 824 pg/mL and the “IL-2 (pg/mL) at 2 ug/mL, SEB PBMC test” value [1] was 4450 pg/mL. The “IL-2 (pg/mL) at 4 ug/mL (so in the source), SEB PBMC test” value [1] was 1950 pg/mL, the “IL-2 (pg/mL) at 10 ug/mL, SEB PBMC test” value [1] was 7910 pg/mL and the “MFI at 0.07 nM” value [2] was 22. The “MFI at 0.67 nM” value [2] was 125, the “MFI at 6.67 nM” value [2] was 347 and the “MFI at 66.67 nM” value [2] was 606. The “MFI at 0.000128 nM” value [3] was 2.3, the “MFI at 0.0128 nM” value [3] was 35.7 and the “MFI at 0.064 nM” value [3] was 96.8. For the same binder, the “MFI at 0.32 nM” value [3] was 270, the “MFI at 1.6 nM” value [3] was 504 and the “MFI at 8 nM” value [3] was 757. The “MFI at 40 nM” value [3] was 810, the “MFI at 200 nM” value [3] was 784 and the “IC50 (read off the curve)” value [4] was ~0.6 nM. For the same binder, the “Inhibition rate (%) at 0.00091 nM” value [5] was 0%, the “Inhibition rate (%) at 0.091 nM” value [5] was -29% and the “Inhibition rate (%) at 0.274 nM” value [5] was 2%. For the same binder, the “Inhibition rate (%) at 0.823 nM” value [5] was 62%, the “Inhibition rate (%) at 2.5 nM” value [5] was 78% and the “Inhibition rate (%) at 7.4 nM” value [5] was 89%. The “Inhibition rate (%) at 22.2 nM” value [5] was 91%, the “Inhibition rate (%) at 66.7 nM” value [5] was 93% and the “Inhibition rate (%) at 0.00091 nM” value [6] was 0%. The “Inhibition rate (%) at 0.091 nM” value [6] was -2%, the “Inhibition rate (%) at 0.274 nM” value [6] was 4% and the “Inhibition rate (%) at 0.823 nM” value [6] was 75%. For the same binder, the “Inhibition rate (%) at 2.5 nM” value [6] was 87%, the “Inhibition rate (%) at 7.4 nM” value [6] was 89% and the “Inhibition rate (%) at 22.2 nM” value [6] was 89%. For the same binder, the “Inhibition rate (%) at 66.7 nM” value [6] was 96% and the “IC50 (read off the curve)” value [7] was ~0.5 nM.
